Paper PMC10897158

Key:
Settings in all cases: remark: other sources report otherwise
[1] = biological target: T1, E2 ubiquitin-conjugating enzyme USE1 (endogenous, wild type) (human (endogenous in HEK293T, human fibroblasts and iPSC-derived neurons)), Q9H832; assay: FRET or BRET; FLIM-FRET (two-photon FLIM) in fixed WT and USE1 ΔPolyAla KO HEK293T cells; endogenous USE1 and UBA6 stained, secondary antibodies Alexa 488 (donor, USE1) and Alexa 555 (acceptor, UBA6); lifetime of donor only minus donor and acceptor
T1 chain: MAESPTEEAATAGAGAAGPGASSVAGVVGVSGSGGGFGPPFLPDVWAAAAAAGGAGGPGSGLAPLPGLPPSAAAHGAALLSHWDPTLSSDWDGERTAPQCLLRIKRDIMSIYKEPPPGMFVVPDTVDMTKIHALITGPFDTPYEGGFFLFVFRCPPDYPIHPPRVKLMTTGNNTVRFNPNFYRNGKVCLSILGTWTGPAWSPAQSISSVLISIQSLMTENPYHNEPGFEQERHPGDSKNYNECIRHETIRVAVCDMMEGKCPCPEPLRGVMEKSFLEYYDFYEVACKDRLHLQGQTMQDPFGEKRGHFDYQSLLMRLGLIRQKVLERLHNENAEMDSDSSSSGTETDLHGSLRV

[2] = biological target: T1, E2 ubiquitin-conjugating enzyme USE1 …; assay: FRET or BRET; FLIM-FRET (two-photon FLIM) in iPSC-derived autonomic neurons of healthy controls; endogenous USE1 (donor, Alexa 488) and UBA6 (acceptor, Alexa 555); lifetime of donor only minus donor and acceptor
[3] = biological target: T1, E2 ubiquitin-conjugating enzyme USE1 …; assay: FRET or BRET; FLIM-FRET (two-photon FLIM) in iPSC-derived autonomic neurons of CCHS patients (PHOX2B polyalanine expansion); endogenous USE1 (donor, Alexa 488) and UBA6 (acceptor, Alexa 555); lifetime of donor only minus donor and acceptor

difference in fluorescence lifetime (donor only to donor and acceptor) [1]: 0.099 ns
difference in fluorescence lifetime (donor only minus donor and acceptor) [2]: 0.253
difference in fluorescence lifetime (donor only minus donor and acceptor) [3]: 0.025
B1: E1 ubiquitin-activating enzyme UBA6 (endogenous), A0AVT1 1-1052 (enzyme)
chain: MEGSEPVAAHQGEEASCSSWGTGSTNKNLPIMSTASVEIDDALYSRQRYVLGDTAMQKMAKSHVFLSGMGGLGLEIAKNLVLAGIKAVTIHDTEKCQAWDLGTNFFLSEDDVVNKRNRAEAVLKHIAELNPYVHVTSSSVPFNETTDLSFLDKYQCVVLTEMKLPLQKKINDFCRSQCPPIKFISADVHGIWSRLFCDFGDEFEVLDTTGEEPKEIFISNITQANPGIVTCLENHPHKLETGQFLTFREINGMTGLNGSIQQITVISPFSFSIGDTTELEPYLHGGIAVQVKTPKTVFFESLERQLKHPKCLIVDFSNPEAPLEIHTAMLALDQFQEKYSRKPNVGCQQDSEELLKLATSISETLEEKPDVNADIVHWLSWTAQGFLSPLAAAVGGVASQEVLKAVTGKFSPLCQWLYLEAADIVESLGKPECEEFLPRGDRYDALRACIGDTLCQKLQNLNIFLVGCGAIGCEMLKNFALLGVGTSKEKGMITVTDPDLIEKSNLNRQFLFRPHHIQKPKSYTAADATLKINSQIKIDAHLNKVCPTTETIYNDEFYTKQDVIITALDNVEARRYVDSRCLANLRPLLDSGTMGTKGHTEVIVPHLTESYNSHRDPPEEEIPFCTLKSFPAAIEHTIQWARDKFESSFSHKPSLFNKFWQTYSSAEEVLQKIQSGHSLEGCFQVIKLLSRRPRNWSQCVELARLKFEKYFNHKALQLLHCFPLDIRLKDGSLFWQSPKRPPSPIKFDLNEPLHLSFLQNAAKLYATVYCIPFAEEDLSADALLNILSEVKIQEFKPSNKVVQTDETARKPDHVPISSEDERNAIFQLEKAILSNEATKSDLQMAVLSFEKDDDHNGHIDFITAASNLRAKMYSIEPADRFKTKRIAGKIIPAIATTTATVSGLVALEMIKVTGGYPFEAYKNCFLNLAIPIVVFTETTEVRKTKIRNGISFTIWDRWTVHGKEDFTLLDFINAVKEKYGIEPTMVVQGVKMLYVPVMPGHAKRLKLTMHKLVKPTTEKKYVDLTVSFAPDIDGDEDLPGPPVRYYFSHDTD
